This test addresses PP1G(7–300) (mouse) (UniProt P63087).

“eIF2a^P (1–185) R66E; K86E double mutant (domain or fragment)”: the dephosphorylation as a substrate of the PPP1R15B-MBP-PP1-actin ternary complex, against wildtype eIF2a^P (Figure 8B) was > 10 fold and the dephosphorylation as a substrate of the PPP1R15B-MBP-PP1 binary complex, against wildtype eIF2a^P (Figure 8B) came out at 2 fold.

The record behind these values is paper PMC4394352.
